# Substitutions are numbered along the chain they refer to. Names may count otherwise.
# B1: F265L (protein)
# chain: MKVSALKEKVSALKEKVSALKEKVSALKEKVSALKEGSGGGSGGGSGGGSNSIALKNNTLWTGPKPEANCIIEYGKQNPDSKLTLILVKNGGIVNGYVTLMGASDYVNTLFKNKNVSINVELYFDATGHILPDSSSLKTDLELKYKQTADFSARGFMPSTTAYPFVLPNAGTHNENYIFGQCYYKASDGALLPLEVTVMLNKRLPDSRTSYVMTFLWSLNAGLAPETTQATLITSPFTFSYIREDD
# B2: K217E+F224S (protein)
# chain: B1 chain with K144E, F151S, L192F
# B3: V239D (protein)
# chain: B1 chain with V166D, L192F
# B4: E299V (protein)
# chain: B1 chain with L192F, E226V
# B5: N186D (protein)
# chain: B1 chain with N113D, L192F
# What was measured:
# Ad3-GFP virus = experiment: Competition of Ad3-GFP virus infection on HeLa cells; assay type: cell-based, adenovirus serotype 3; details: pre-incubation with knob; GFP expression
# Protocol: FIG. 3A-3D. Competition of Ad3 virus by dimerized Ad3 knob mutants. FIG. 3A) Relative attachment of ^3H-labeled Ad3 virus in the presence of dimeric fiber knob mutants. 1.8×10^5 HeLa cells were incubated with Ad3 knob mutants at a concentration of 2.5 and 100 μg/ml on ice for 1 hour. Then 400 pfu/cell of ^3H-Ad3 virus was added on ice for another hour. Unbound virus particles were washed away. Attachment of virus particles incubated with PBS was taken as 100%. N=3. FIG. 3B1-3B2) Competition of Ad3-GFP virus infection on HeLa cells. 1.5×10^5 HeLa cells were seeded into 24 well plates. Cells were incubated with the Ad3 knob mutants at increasing concentrations for one hour at room temperature. 100 pfu/cell of Ad3-GFP virus were then added and GFP expression was analyzed 18 hours later by flow cytometry. FIG. 3B1) percentage of GFP positive cells. FIG. 3B2) mean fluorescence intensity. N=3. The standard deviation was less than 10%. FIG. 3C) Relative attachment of ^3H-labeled Ad3 virus in the presence of dimeric fiber knob mutants with multiple mutations. The study was performed as described in […]) The standard deviation was less than 10%. FIG. 3D) Competition of Ad3-GFP virus infection on HeLa cells. The study was performed as described in FIG. 3C) The standard deviation was less than 10%.
# FIG. 9A1-9C. Analysis of dimeric Ad3 fiber knob mutants with increased affinity to DSG2. FIG. 9A1-9A2) Competition of Ad3-GFP virus infection on HeLa cells with dimeric affinity-enhanced mutant Y250F and JO-1 (dimeric wt Ad3 fiber knob). The experimental setting is as described for FIG. 3C. FIG. 9A1) percentage of GFP positive cells. FIG. 9A2) mean fluorescence intensity. N=3. The standard deviation was less than 10%. […] 100 pfu/cell of Ad3GFP virus were then added and GFP expression was analyzed 18 hours later. […]
# Functional validation. […] Transduction was measured based on GFP expression (FIG. 3B). […] Dimeric Ad3 knob mutants with combined mutations were also analyzed for their ability to compete with Ad3 virus for attachment (FIG. 3C) and infection (FIG. 3D).
# soluble recombinant DSG2 = molecular target: T1, soluble recombinant DSG2 (Homo sapiens, UniProt Q14126); experiment: Western blot of dimeric Ad3 fiber knob mutants with soluble recombinant DSG2 as probe; assay type: binding; details: dimerized knob mutants compared to JO-1
# T1 construct: Western blot using soluble recombinant DSG2 as a probe; purchased Leinco Technologies, Inc. (St. Louis, MO)
# T1 sequence (Q14126 50-609 limits assumed): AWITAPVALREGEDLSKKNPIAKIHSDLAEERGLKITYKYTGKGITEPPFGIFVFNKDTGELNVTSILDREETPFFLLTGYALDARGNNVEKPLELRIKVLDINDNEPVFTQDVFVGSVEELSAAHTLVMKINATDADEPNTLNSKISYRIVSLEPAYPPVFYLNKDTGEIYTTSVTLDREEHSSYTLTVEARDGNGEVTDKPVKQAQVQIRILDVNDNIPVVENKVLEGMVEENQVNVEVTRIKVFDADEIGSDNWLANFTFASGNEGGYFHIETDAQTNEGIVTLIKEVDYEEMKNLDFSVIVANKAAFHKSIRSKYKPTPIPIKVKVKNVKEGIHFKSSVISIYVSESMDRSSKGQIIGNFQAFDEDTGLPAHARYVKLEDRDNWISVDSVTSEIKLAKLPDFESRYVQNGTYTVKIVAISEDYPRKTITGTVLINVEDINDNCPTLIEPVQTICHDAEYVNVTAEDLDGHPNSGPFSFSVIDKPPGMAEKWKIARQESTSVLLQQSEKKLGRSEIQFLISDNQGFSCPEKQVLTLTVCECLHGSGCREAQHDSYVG
# Source text: FIG. 1A-1F. Residues found to be critically involved in binding to DSG2. FIG. 1A) Shown are the amino acid sequences of the Ad3 and Ad14p1 fiber knob. Beta sheets present in the Ad3 knob (PDB accession number 1H7Z_A) and Ad14 knob (PDB: 3F0Y_A) are indicated by lines. Black arrows indicate residues within the Ad3 fiber knob which, when mutated individually, ablate or reduce binding to DSG2. […] FIG. 1B) Schematic structure of dimeric Ad3 fiber knob mutants. The fiber knob domain and one shaft motif was fused through a flexible linker to a homodimerizing K-coil domain (41). The proteins are self-dimerizing and can be purified by His-Ni-NTA affinity chromatography. FIG. 1C-FIG. 1F) Analysis of binding of dimeric Ad3 fiber knob mutants to soluble DSG2. FIG. 1C and FIG. 1D) Coomassie staining. 10 μg of purified Ad3 fiber knob (unboiled) were loaded per lane. Trimeric forms of the fiber knobs are indicated by an arrow. The gel contained SDS and the loading buffer containing DTT, which caused the disassembly of dimers of trimeric fiber knobs as previously reported (41). FIG. 1E and FIG. 1F): Western blot using soluble recombinant DSG2 as a probe, followed by anti-DSG2-mAb and anti-mouse IgG-HRP. For comparison, JO-1 (0.5 μg/lane) is shown. The Western blots were scanned and signals were quantified.
# Western Blot: Mini-PROTEAN precast gels (BIO-RAD, Hercules, CA) with 4-15% gradient polyacrylamide were used. A total of 1 μg protein mixed with 2× loading buffer (10 mM Tris-HCl, pH6.8, 200 mM DTT, 4% SDS, 20% glycerol, 0.2% bromophenol blue) was loaded per lane. Samples were either boiled (B) for 5 min or loaded unboiled (UB). The following running buffer was used: 25 mM Tris, pH8.3, 0.192 M glycine, 0.1% SDS. After electrophoresis, proteins were transferred to nitrocellulose and incubated with recombinant human DSG2 protein and anti-DSG2 antibodies as described previously (42). The Western blots were scanned and quantified using the ImageJ 1.32 software (National Institutes of Health, Bethesda, MD). JO-1 band intensity was set as 100%. […]
# [1] = tested on: polarized colon cancer T84 cells; experiment: Transepithelial electrical resistance (TEER) on polarized T84 cells; assay type: cell-based; details: for TEER compared to JO-1: dimeric affinity-enhanced mutants, TEER at 4 hours; for Effect on the TEER: added for 1 hour to the apical side of transwell cultures
# Protocol: (§1) FIG. 5A-5B. Correlation of reduced DSG2 binding with the ability to open epithelial junctions. FIG. 5A) Transepithelial electrical resistance (TEER) measured on polarized colon cancer T84 cells. Cells were cultured in transwell chambers until the TEER was constant, i.e. tight junctions had formed. A total of 5 μg of dimeric Ad3 fiber knobs in PBS was then added for 1 hour to the apical chamber. TEER was measured at the indicated time points. N=6. For time points 1.5 and 4 hours the difference between JO-1 vs D261N and N186D was significant (p<0.01). The arrows indicate the addition and removal of Ad3 fiber knobs. FIG. 5B) Enhancement of irinotecan therapy. A total of 4×10^6 A549 cells were injected subcutaneously into CB17-SCID/beige mice. Once the tumor reached a volume of ˜100 mm^3 (day 15 after implantation), the mice were injected intravenously with 2 mg/kg JO-1, E299V, N186D, or PBS, followed by an intravenous injection of irinotecan (37.5 mg/kg) one hour later. The treatment was repeated on day 25. N=5. […] The difference between “irinotecan” vs “JO-1+irinotecan” was significant (p<0.01) from day 20 on.
# FIG. 9A1-9C. Analysis of dimeric Ad3 fiber knob mutants with increased affinity to DSG2. FIG. 9A1-9A2) Competition of Ad3-GFP virus infection on HeLa cells with dimeric affinity-enhanced mutant Y250F and JO-1 (dimeric wt Ad3 fiber knob). The experimental setting is as described for FIG. 3C. FIG. 9A1) percentage of GFP positive cells. FIG. 9A2) mean fluorescence intensity. N=3. The standard deviation was less than 10%. FIG. 9B1-9B2) Competition of Ad3-GFP virus infection on HeLa cells by Ad3 knob mutants with enhanced DSG2 binding but without dimerization domain. 1.5×10^5 HeLa cells were seeded into 24 well plates. Cells were incubated with the Ad3 knob mutants at the increasing concentrations for one hour at room temperature. 100 pfu/cell of Ad3GFP virus were then added and GFP expression was analyzed 18 hours later. FIG. 9B1) % of GFP+cells; FIG. 9B2) MFI. FIG. 9C) TEER on colon cancer T84 cells. The experimental setting was the same as for FIG. 5A. The TEER at 4 hours is shown. N=3.
# Permeability assay. A total of 5×10^5 T84 cells were seeded in 12 mm transwell inserts (PET membrane, with 0.4 μm pore size (Corning, NY) and cultured for >14 days until transepithelial electrical resistance (TEER) was stable. Culture medium was changed every 2-3 days. The cells were exposed to DSG2 ligands (20 μg/ml) in adhesion medium (DMEM, 1% FBS, 2 mM MgCl2, 20 mM HEPES) for 15 min at room temperature and TEER was measured and calculated as described elsewhere (39).
# A549 xenograft tumors = experiment: Enhancement of irinotecan therapy in A549 xenograft tumors; assay type: in vivo, CB17-SCID/beige mice; details: 2 mg/kg i.v. one hour before irinotecan 37.5 mg/kg i.v.; tumor volume
# Protocol: as §1
# FIG. 10A-10C. Combination of affinity-enhanced JO-1 versions with chemotherapy. FIG. 10A) Enhancement of irinotecan (I) therapy. The experimental setting was the same as in FIG. 5B. […] N=5. […] Mammary fat pad tumors were established from primary ovarian cancer ovc316 cells. Treatment was started when tumors reached a volume of 100 mm^3. Mice were injected intravenously with 2 mg/kg JO-1 or with 0.5 mg/kg JO-4, followed by an intravenous injection of PEGylated liposomal doxorubicin (PLD) (1 mg/kg) one hour later. Treatment was repeated weekly. […] A total of 4×10^6 TNBC MDA-MB-231 cells were injected into the mammary fat pad of CB17 SCID-beige mice. JO-4 (2 mg/kg) was intravenously injected 1 hour before the application of cetuximab (C) (10 mg/kg, i.p.) and nab-paclitaxel (nab-P) (5 mg/kg, i.v.). Treatment was given weekly. N=10 P<0.01 at day 25 for nab-P+C vs JO-4+nab-P+C.
# A549, MDA-MB-231, and ovc316 xenograft tumors were established by injection of the corresponding tumor cells into the mammary fat pad (1:1 with Matrigel) of CB17 mice. TC1-DSG2 tumors were established by subcutaneous injection of TC1-DSG2 cells into DSG2 transgenic mice. JO-0, JO-1, JO-2, or JO-4 were intravenously injected one hour before the application of chemotherapeutic drugs: Irinotecan/Camptosar™ (Pfizer Inc., Groton, CT), PEGylated liposomal doxorubicin/Lipodox™ (Sun Pharmaceuticals IN, India), cetuximab/Erbitux™ (ImClone, Somerville, NJ), nanoparticle albumin conjugated paclitaxel/Abraxane” (Abraxis Biosciences, Summit, NJ). Tumor volumes were measured three times a week. Each treatment group consisted of a minimum of 5 mice.
Molecule,TEER compared to JO-1 [1],Effect on the TEER [1],Enhancement of irinotecan therapy (A549 xenograft tumors),further results
B1,,,,"Inhibition of Ad3-GFP infection of HeLa cells, in words (Ad3-GFP virus): least reduced; DSG2 binding in Western blot, in words (soluble recombinant DSG2): almost completely ablated"
B2,significantly higher,,,
B3,significantly higher,,,
B4,,intermediate effects,not significant,
B5,,intermediate effects,not significant,

# — patent US12466859B2, “Desmoglein 2 (DSG2) binding proteins and uses therefor” (UNIVERSITY OF WASHINGTON THROUGH ITS CENTER FOR …, priority 2013, dated 2025)
